“And” between values parts separate entries of the source, which are not always exact repeats. Equal entries are not always repeated.
Columns and labels:
Details in all cases: scale: KASH6 per SUN1
[1] = target: SUN domain of human SUN1 (amino-acids 616-812) (human); assay: SEC-MALS
[2] = target: SUN domain of human SUN1 (amino-acids 616-812) (human); assay: SEC-MALS; remark: listed apart in the source
[3] = target: SUN domain of human SUN1 (amino-acids 616-812) (human); assay: crystal structure
[4] = target: SUN domain of human SUN1 (amino-acids 616-812) (human); assay: SEC-MALS; remark: listed apart in the source

Binder | stoichiometry N [1] | stoichiometry N [2] | stoichiometry N [3] | stoichiometry N [4]
EDSWTSLEHILWPFTRLRHNGPPPV [KASH6 core (human JAW1/LRMP amino-acids 531-555)] | 1 | 0.67 |  | 
TGQLFQKSVDAAPTQQEDSWTSLEHILWPFTRLRHNGPPPV [KASH domain of human JAW1/LRMP (amino-acids 515-555)] | 1 |  | 0.67 | 0.67 and 1

Source: paper doi:10.1101/2023.06.05.543797
